{"source": "patent US5747275", "about": "“Protein kinase required for RAS signal transduction” (The Regents of the University of California, dated 1998)", "key": {"[1]": {"target": "Drosophila Ras1 (Drosophila, UniProt P08646)", "assay": "yeast two-hybrid system or bacterially-expressed fusion proteins"}, "[2]": {"target": "Dsor1 (D-MEK) (Drosophila, UniProt Q24324)", "assay": "yeast two-hybrid"}}}
{"binder": "Drosophila melanogaster kinase suppressor of ras (Ksr) (enzyme) MSSNNNAPASAPDTGSTNANDPISGSLSVDSNLVIIQDMIDLSANHLEGLRTQCAISSTLTQQEIRCLESKLVRYFSELLLAKMRLNERIPANGLVPHTTGNELRQWLRVVGLSQGTLTACLARLTTLEQSLRLSDEEIRQLLADSPSQREEEELRRLTRAMQNLRKCMESLESGTAASNNDPEQWHWDSWDRPTHIHRGSVGNIGLGNNSTASPRTHHRQHGVKGKNSALANSTNFKSGRQSPSATEELNSTQGSQLTLTLTPSPPNSPFTPSSGLSSSLNGTPQRSRGTPPPARKHQTLLSQSHVQVDGEQLARNRLPTDPSTDSHSSTSSDIFVDPNTNASSGGSSSNVLMVPCSPGVGHVGMGHAIKHRFTKALGFMATCTLCQKQVFHRWMKCTDCKYICHKSCAPHVPPSCGLPREYVDEFRHIKEQGGYASLPHVHGAAKGSPLVKKSTLGKPLHQQHGDSSSPSSSCTSSTPSSPALFQQRERELDQAGSSSSANLLPTPSLGKHQPSQFNFPNVTVTSSGGSGGVSLISNEPVPEQFPTAPATANGGLDSLVSSSNGHMSSLIGSQTSNASTAATLTGSLVNSTTTTSTCSFFPRKLSTAGVDKRTPFTSECTDTHKSNDSDKTVSLSGSASTDSDRTPVRVDSTEDGDSGQWRQNSISLKEWDIPYGDLLLLERIGQGRFGTVHRALWHGDVAVKLLNEDYLQDEHMLETFRSEVANFKNTRHENLVLFMGACMNPPYLAIVTSLCKGNTLYTYIHQRREKFAMNRTLLIAQQIAQGMGYLHAREIIHKDLRTKNIFIENGKVIITDFGLFSSTKLLYCDMGLGVPHNWLCYLAPELIRALQPEKPRGECLEFTPYSDVYSFGTVWYELICGEFTFKDQPAESIIWQVGRGMKQSLANLQSGRDVKDLLMLCWTYEKEHRPQFARLLSLLEHLPKKRLARSPSHPVNLSRSAESVF", "values": [{"measurement": "binding result", "setting": "[1]", "value": "no binding"}, {"measurement": "binding result", "setting": "[2]", "value": "no binding"}]}
